Experiment: yeast display, Sf9 membrane polyspecificity reagent, FACS + sequencing; frameworks hold sequencing errors
Method in brief: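 Nanobodies from a synthetic yeast display library (Saccharomyces cerevisiae BJ5465), induced 36–48 hours with galactose, were stained 1 hour at 4 °C with 10% biotinylated, detergent-solubilized Sf9 membrane reagent, enriched on streptavidin microbeads, then FACS-sorted. Anti-HA (expression) and streptavidin (reagent binding) fluorescence set low and high (top ~1%) gates. Polyreactivity labels come from the gate of origin. Genes were colony-PCR amplified, MiSeq 2 × 250 sequenced and filtered by CDR length.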

Row | Sequence | polyreactivity (PSR sort gate)
1 | QVQLVESGGGLVQAGGSLRLSCAASGLIFATYAMRWYRQAPGKERELVADITTTGSTYYADSVKGRFTISRDNAKNTVYLQMNSLKPEDTAVYYCAAYGRWLTWYDFDYWGQGTQVTVSS | high polyreactivity
2 | QVQLVESGGGLVQAGGSLRISCAASGRIFERNAMRWYRQAPGKERELVAAITYNGGRTYYADSVKGRFTISRDNAKITVYLQMNSLKPEDTAVYNCNAQSRVTRSSYRGSPRYDFWGQGTQVTVSS | high polyreactivity
3 | QVQLVESGGGLVQAGGSLRLSCAASGRIFGPYAMGWYRQAPGTERELVAAIRASSSSTYYADSVKGRFTISRDNAKNTVYLQMNSLKPEDTAVYYCAADWYYGYAWKYGYWGQGTQVTVSS | low polyreactivity
4 | QVQLVESGGGLVQAGGSLRLSCAASGRTFRPYAMGWYRPAPGKERELVAAISYRGGITNYADSVKGRFTISRDNAKNTVYLKMNSLKPEDTAVYYCNRYAIWVSRYSDLDYWGQGTEVTVSS | low polyreactivity
5 | QVQLVESGGGLVQAGGSLRLSCAASGFIIKANAMGWYRQAPGKERELVASITFGGDSTYYADSVKGRFTISRDNAKNTVYLQMNSLKPEDTAVYYCNTRRRSYRTYYYWGQGTQVTVLS | low polyreactivity
6 | QVQLVESGGGLVQAGGSLRLSCAASGSTVRVYAMGWYRQAPGKERELVARISITGGTTRYADSVKGRFTISRDNAKNTVYLQMNSLKPEDTAVYYCNADYDWYYWYLYKYPFDYWRQGTQVTVSS | low polyreactivity
7 | QVQLVESGGGLVQAGGSLRLICAASGFIFPQNAMGWYRQAPGKERELLAAISKRGGSTYYADSVKGRFTISRDYAKNTVYLQMNSLKPEDTAVYYCAAGYRTRRGLGYYYWGQGTQVTVSS | high polyreactivity
8 | QVQLVESGGGLVQAGGSLRLSCAASGLTFGFYAMGWYRQAPGKERELVAGISNGGSTNYADSVKARFTISRDNAKNTVYLQMNSLKPEDTAVFYCAAQGEYGFTAYYPGDSWGQGTQVTVSS | low polyreactivity
9 | QDQLVESRGGLVQAGGSLRLSCAASGFTFYRYAMGWYRQAPGKERELVAAITWRGTSTYYADSVKGRFTISRDNAKNTVYLQMNSLKPEDTAVYYCNADRGYKYDYWGQGTQVTVSS | high polyreactivity
10 | QVQLVESRGVLVQAGGSLRLSCAASGYIFAPYAMGWYRPAPGKERELVSAISWRGGSTYYADSVKGRFTISRDNAKITVYLQMNSLKPVDTAVYFCAAQGYGSGLSYYRFDFWGLGTQVTVSS | high polyreactivity
11 | QVQLVESGGGLGQAGGSLRLSCAASGSTFYRNAMGWYRPAPGKERELVAAISGSDGSTYYADSVKGRFTISRDNAKNTVYLQMNSLKPEDTAVYYCVVAYARKYYYWGQGTQVTVSS | high polyreactivity
12 | EVQQVESGGGLVQPGGSLRLSCAASGYIYSRYRMGWCRQAPGKGREFVAAISGGSSTNYADSVKGRFTISRDNSKITVYLQMKSLRAEDTAVYYCAAYMIDSDPRVFWGQGTQVNVSS | low polyreactivity
13 | QVQLVESGGVLVQAGGSLRFSCAASGIIFDQYAMGWYRQAPGKEREFVAVITRSGGSTYYADSVKGRFTISRDNAKKTVYLQMNSLKPEDTAVYYCAAPRLLGKRRRTNDYWGQGTQVTVSS | high polyreactivity
14 | QVQLVESGGGLVQAGGSLRLSCAASGSIFAPYAMGLYRQAPGKERELVAAIRSSGGSTHYADSVKGRFTISRDNAKNTVYLQMNSLKPEDTAVYYCARSYGWYRWAGYDYWGQGTQVTVSS | high polyreactivity
15 | QVQLVESGGCLVQAGGSLRLSCAASGRIFVPNAMGWYRQAPGKERELVAAINWGGGSTYYADSVKGRFTISRDNAKNTVYLQMNSLKPEDTAVYYCAADHPYTMGVLPNQQFDYWGQGTQVTVSS | low polyreactivity
16 | QVQLVESGGGLVQAGGSLRLSCAASGFIFYRDAMGWYRPAPGKERELVAAISSRGVSTYYADSVKGRFTISRDNAKNTVYLLMNSLKPEDTAVYSCARISRYYALYDYWGQGTQVTVSS | high polyreactivity
17 | QVQLVESGGGLVQAGGSLRVSCAASGFIFGLYAMGWYRQAPGKERELVATISWDGGSTYYADSVKGRFTISRDNAKNTVYLQMNSLKPEDTAVYYCAATYLYRSPYVPMDYWGQGSQVTVSS | low polyreactivity
18 | QVQLVESGGGLVQAGGSLRLSCAASGRIFYTYAMGWYRQAPGKERELVAAIRWRGGSTHYADSVKGRFTISRDNAKNTVYLQMNSLKPEDTAVYYCARDGGWYIDGRAYTGDYWGQGTQVTVSS | high polyreactivity
19 | QVQLVESGGGLFQAGGSLRLSCAASGRIFQGYVMGRYRQAPGKERELVAVISRRGGITNYADSVKGRFTISSDNAKNSVYLQIYRLKPEDTAVYYCNSVTRVYNNGQYGYWGQGTQVTVSS | high polyreactivity
20 | QVQLVESGGGLVQAGGRLRLSCAASGSTLGYYTMGWYRQAPGKERELVAANTRSGGSTYYADSVKGRFTISRDNAKNTVYLQMNSLKPEDTAVYYCAAAWTRFRIYDYWGQVTQVTVSS | high polyreactivity
21 | QVQLVESGVGIVQAGGSLRLSCAASGRISYFNAMGWYRQAPGKERELVAAIRRSGGITYYADSVKGRFTISRDNAKNTVYLQMNSLKPEDTAVYYFATERYSWAERDFGYWGQGTLVTVSS | low polyreactivity
22 | QLQLEESGGGLVQAGGSLRLSCAASRRIIVGYAKGRYRQAPGKEREFVAAITFRGGTTYYADSVKGRLTISRDNAKNTVYLQMNSLNQEDSAVYYCAVPHYLYSVEFGYWGQGTQVTVSS | low polyreactivity

Row | Sequence | polyreactivity (PSR sort gate)
23 | QVQLVESGGGLVQAGGSLRLSCAASGRIFQGYAMGWYRQAPGKERELVAAIRTGGSTNYADSVKGRFTISRDNAKNTVYLQMNSLKPEDTAVYYCNAVGQLYFYFPRGDYWGQGTQVTVSS | low polyreactivity
24 | QVQLVESGGGLVHAGGSLRLSCAAYGIIFQYYTMGWYRQAPGKERELVASITYDGDSTYYADSVKGRFTISLDNAKNTVYLQMNSLKPEDTALYYCAAVANGFWTYEYWGQGTQVTVSS | low polyreactivity
25 | QVQLVESGGGLVQAGGSLRLSCAASGRTFYPNAMGWYRQAPGKERELVAAITTDGSTYYADSVKGRFTISRDNAKNTVYLQMNSLKPEDTAVYYCAARGFWWPYTYYYWGHGTQVTVSS | high polyreactivity
26 | QVQLVESGGGLVQAGGSLRLSCAASGSTFYKNAMGWNRQAPGKERELVASISRSGGSTSYADSVKGRFTISRDNAKNTVYLQMNSLKPEDTAVYYCAATWRQHPGSMGYWGQGTQVTVSS | high polyreactivity
27 | QVQLVESGGGLVPARGSLRLSWAASGSTFSLYAMGWYRQAPGKERELVAAISWSGGNTYYADSVKGRFTISRDNAKNTVYLQMNSLKPEDTAVYYCAAEGKTFHRYYLYSYDYWGQGTQVTVSS | high polyreactivity
28 | QVQLVESGGGLVQAGGSLRLSCPASGITFGTNAMGWYIQAPGKERELVAAISKRGSSTYYADSVKGRFTISRDNAKNTVYLQMNSLKPEDTAVYYCNVVDERTRNLSKFYYWGQGTQVTVSS | high polyreactivity
29 | QVQLVESGGGLVQAGGSLRLSCAASGGTYNSNAMGWYRQAPAKEREFVAAISSSGGSTYYADSVKGRFTISRDNAKNTVNLQMNSLKPEDTAVYYCAKRYPYPNCRFRFGYWGQGTQVTVSS | high polyreactivity
30 | QVQLVESGGGLVQAGGSLRLSCAASGRIFAYYAMGWYRQAPGKEREVVAAISRSGVSTYYADSVKGRFTISRDNAKNTVYLQMNSLKPEDTAVYYCAARWRYGFTSGDYWGQGTQVNVSS | low polyreactivity
31 | QVQLVESGGGLVQAGGSLRLSCAASGIIFRWYVMGWYRQAPGKERELVAAISYRRGSTNYADSVKGRFTISRDNAKNTVYLQMNSLKPEDTAVYYCNRVPYPGSRRKYDYWGQGTQVTVSS | high polyreactivity
32 | QVQLEESGGGLVQAGGSLRLSCAASGITSPAYAMGWYRQAPGKEREFVAAISSSGGSTYYADSVKGRFTISRDNAKNTVYLQMNSLKPEDTAVYYCAVRGRISSVSRYGYWGQGTQVTVSS | high polyreactivity
33 | QVQLVESGGGLVQAGGSLRLSCAASGSIFWRNAMGWYRQAPGKERELVAAITKTGASTYYADSVKGRFTISRDNAKNTVYLQMNSLKPEDTAVYYCAKDTRGRYAGSYRYDYCGQGTQVTVSS | low polyreactivity
34 | QVQLVESVVGLVQPRGSLRLSSASSGRTFRQYAMGRYRQAPGKERDLVAAIRTNGGRTYYADSVKGRFTISRDNAKNTVYLQMNSQKPEDTAVYYCAVYAFVQGVLFDYWGQGTQVTVSS | high polyreactivity
35 | QVQLVESGGGLVQAGGSLRLSCAASGSTLYYNAMGWFRQAPGKERELVARISRSGGSTYADSVKGRFTISRDNAKNTVYLQMNMLKRDDTAVYYCNADAYGTPEFTSYAVRYDYWGQGTQVTVSS | low polyreactivity
36 | QVQLVESGGGLVQAGGSLRLSCAASGSTLRYYAMGWYRQAPGKEREFVAAISWRGGSTYYADSVKGRFTISRDNAKNTVYLQMNSLKPEDTAVYYCAAKALYAYRLYDYWGQGTQVTVSS | high polyreactivity
37 | QVQLVESGGGLVQAGGSLRISCAASGNTFTRNTMGWYRQAPGKERELVASISLSGASTYYADSVKGRFTISRDNAKNTVYLQMNSLKPEDTAVYYCAARSRQDLEYDYWGQGTQVTVSS | high polyreactivity
38 | QVQLVESGGGLVQAGGSLRLSCAASGNIFGTYAMGWSRQAPRKERELVATISNDDRTNYADSVKGRFTISRDNAKNTVYFQMNSLKPADTAVYYCAVEYPSIAYRKSSKTFDYWGQGTQVTVSS | low polyreactivity
39 | QVQLVESGGGLVQAGGSLRLSCAASGRIFKYYAMGWYRQAPGKERELVAAISGTGGGTYYADSVKGRFTISRDNAKNTVYLQMNSLKPEDTAVYYCAALHQAYRGFDYWGQGTQVSVSS | high polyreactivity
40 | QVQLVESGGGLVQAGGSLRLSCAASGRIFGANAMGWYRQAPGKERELVAAIDDGVSTNYADSVKGRFTISRDNAKNTVYLQMNSLKPEDTAVYYCAKRSFVGGRGRDSDYWGQGTQVTVSS | low polyreactivity
41 | QVQLVESGGRLVQAGGSLRLSCAASGYTFGSYPMGWYRQAPGNERELVAAISGGGSTNYADSVKGRFTISRDNAKNTVYLQMNSMKPEDTAVYYCAAYPYVYQLRVEEYDHWGQGTQVTVSS | low polyreactivity
42 | QVQLVESGGGLVQAGGSLRLSCAASGRIFYVYAMGWYRQAPGKEREFVAAITRRSGSTYYADSVKGRFTISRDKAKNTVYLQMNSLKPEDTAVYYCNARLKYAFPQVPPYDYWGQGTQVTVSS | high polyreactivity
43 | QVQLVESGGGLVQAGGSLRLSCAASGRIFTWYAMGWYRQAPGKERELVAAISWSGGRTYYADSVKGRFTISRDNAKNTVYLQMNSLKPEDTAVYYCNAVPSVRWRYDYWGQGTQVTVSS | high polyreactivity
